The record followed here is patent US20050043235A1 (LICENTIA, published 2005).

For one assay, the target named is T1, VEGFR-1-Ig (UniProt P17948 27-553).
T1 construct: not shown: Ig part of the fusion, not described
In words: precipitation of 35S-labelled protein with VEGFR-1-Ig, SDS-PAGE (FIG. 5B).

For the next assay, the target named is T2, neuropilin-1-Ig (UniProt O14786 22-856).
T2 construct: also called NP1; NP-1; not shown: Ig part of the fusion, not described
T2 sequence (looked up): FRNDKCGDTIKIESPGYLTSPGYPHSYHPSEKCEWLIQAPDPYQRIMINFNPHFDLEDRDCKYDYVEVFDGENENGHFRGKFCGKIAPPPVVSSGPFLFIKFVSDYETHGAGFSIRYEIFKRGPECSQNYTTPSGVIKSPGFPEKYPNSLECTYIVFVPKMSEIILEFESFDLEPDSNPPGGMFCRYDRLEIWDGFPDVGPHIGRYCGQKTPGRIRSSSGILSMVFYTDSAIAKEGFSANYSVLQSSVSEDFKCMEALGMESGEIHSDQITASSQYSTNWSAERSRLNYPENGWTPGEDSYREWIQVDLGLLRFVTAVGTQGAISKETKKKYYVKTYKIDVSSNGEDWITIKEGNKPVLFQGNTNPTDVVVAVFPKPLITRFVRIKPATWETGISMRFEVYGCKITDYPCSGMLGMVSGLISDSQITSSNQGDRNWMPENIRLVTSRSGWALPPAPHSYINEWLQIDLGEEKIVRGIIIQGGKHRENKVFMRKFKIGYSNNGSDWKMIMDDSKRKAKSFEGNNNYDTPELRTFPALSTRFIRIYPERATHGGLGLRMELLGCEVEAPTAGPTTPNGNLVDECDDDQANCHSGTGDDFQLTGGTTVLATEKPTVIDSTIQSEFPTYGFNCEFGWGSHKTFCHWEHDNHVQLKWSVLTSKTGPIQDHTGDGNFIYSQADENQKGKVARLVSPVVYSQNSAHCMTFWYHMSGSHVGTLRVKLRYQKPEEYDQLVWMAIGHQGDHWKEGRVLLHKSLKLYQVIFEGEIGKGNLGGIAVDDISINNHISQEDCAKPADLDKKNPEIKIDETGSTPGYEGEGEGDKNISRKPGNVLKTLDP
In words: precipitation of 35S-labelled protein with neuropilin-1-Ig, SDS-PAGE (FIG. 5A).

T1 sequence (P17948 27-553): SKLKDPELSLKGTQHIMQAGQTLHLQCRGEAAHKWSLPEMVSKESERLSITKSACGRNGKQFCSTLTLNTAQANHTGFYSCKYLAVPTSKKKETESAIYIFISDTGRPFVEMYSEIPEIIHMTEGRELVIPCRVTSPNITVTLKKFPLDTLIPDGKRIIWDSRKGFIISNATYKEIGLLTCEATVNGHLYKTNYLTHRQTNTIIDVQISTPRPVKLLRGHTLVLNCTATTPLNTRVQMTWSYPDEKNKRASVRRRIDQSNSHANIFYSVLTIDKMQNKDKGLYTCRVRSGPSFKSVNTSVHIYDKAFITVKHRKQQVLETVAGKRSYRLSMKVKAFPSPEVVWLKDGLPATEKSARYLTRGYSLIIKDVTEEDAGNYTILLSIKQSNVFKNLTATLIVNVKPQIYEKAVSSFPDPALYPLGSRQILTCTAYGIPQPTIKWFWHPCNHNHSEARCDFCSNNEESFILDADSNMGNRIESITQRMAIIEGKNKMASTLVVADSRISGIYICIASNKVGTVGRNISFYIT

B1: VEGF-CΔNΔC (ligand)
chain: TEETIKFAAAHYNTEILKSIDNEWRKTQCMPREVCIDVGKEFGVATNTFFKPPCVSVYRCGGCCNSEGLQCMNTSTSYLSKTLFEITVPLSQGPKPVTISFANHTSCRCMSKLDVYRQVHSIIRR
notes: also called N C; VEGF-C short form
In the case of B1, the binding result with VEGFR-1-Ig and with neuropilin-1-Ig was “no binding” throughout.

B2: CA89, chimeric protein of the VEGF homology domain of VEGF-C and VEGF exon 6-8 encoded sequences (ligand)
chain: TEETIKFAAAHYNTEILKSIDNEWRKTQCMPREVCIDVGKEFGVATNTFFKPPCVSVYRCGGCCNSEGLQCMNTSTSYLSKTLFEITVPLSQGPKPVTISFANHTSCRCMSKLDVYRQVHSIIRRKSVRGKGKGQKRKRKKSRYKSWSVPCGPCSERRKHLFVQDPQTCKCSCKNTDSRCKARQLELNERTCRCDKPRR
notes: CA89 is released only with heparin in the medium; also called pEBS7/CA89; pREP7/CA89
Turning to B2, in the assay with VEGFR-1-Ig, the binding result is on record as “no binding”.

B3: CA65, chimeric protein of the VEGF homology domain of VEGF-C and VEGF exon 7-8 encoded sequences (ligand)
chain: TEETIKFAAAHYNTEILKSIDNEWRKTQCMPREVCIDVGKEFGVATNTFFKPPCVSVYRCGGCCNSEGLQCMNTSTSYLSKTLFEITVPLSQGPKPVTISFANHTSCRCMSKLDVYRQVHSIIRRPCGPCSERRKHLFVQDPQTCKCSCKNTDSRCKARQLELNERTCRCDKPRR
notes: Exon 7-8 is used here; also called pEBS7/CA65; pREP7/CA65
In the case of B3, the binding result with VEGFR-1-Ig is reported as “no binding”.
